Tests used:
PC-3luc cells [1] = assay: PC-3luc cell proliferation / cytotoxicity in vitro (MTT); type: cell-based, human; conditions: G-CSF, 96 hours, three concentrations
Procedure: A cell proliferation assay was performed on human PC-3 prostate tumor cells after 96 hours of treatment by G-CSF at three different concentrations by comparison with human leukemic cells (HL-60 and U937). Cell proliferation was quantified by a cell viability assay using MTT (3-[4,5-dimethylthiazole-2-yl]-2,5-diphenyltetrazolium bromide (Sigma). The percentage of viable cells was calculated by comparing the optical density (OD) of the treated samples with those incubated with vehicle. Methods were carried out as described by Magnon, et al., Cancer Res, 65, 4353-61 (2005); incorporated herein by reference in its entirety.

healthy prostate = assay: Healthy (tumor-free) prostate: nerve density, epithelial cell proliferation, apoptosis, Chrm1 expression; type: in vivo, mouse
Procedure: (§1) Upon sacrifice, mouse prostate tissues were immersed in OCT medium (Tissue Teck®). Five-micrometer frozen sections were stained with hematoxylin-eosin (H&E). For immunofluorescence, unstained prostate sections were fixed with acetone or methanol. For staining of nerves, fixed sections were incubated in H2O2 to quench endogenous peroxidase and non-specific binding was blocked with goat serum in bovine serum albumin (BSA) solution and the avidin/biotin blocking kit (Vector Laboratories, Burlingame, Calif.). Sections were incubated with a rabbit anti-TH antibody (Millipore, Billerica, Mass.), or anti-VAChT antibody (Phoenix Pharmaceuticals, Inc., Burlingame, Calif.), or anti-NF-L antibody (Millipore), or anti-NF-H antibody (Abcam, Cambridge, Mass.) and then with a secondary biotinylated goat anti-rabbit antibody (Vector Laboratories). Signal was amplified using the Vectastain Elite ABC Kit (Vector Laboratories) and visualized using the Tyramide Signal Amplification kit for TRITC (PerkinElmer, Boston, Mass.).
(§2) For proliferative cell quantification, sections were incubated with a rabbit polyclonal anti-Ki67 (Abcam) and then Alexafluor 568-conjugated goat anti-rabbit antibody (Molecular Probes, Carlsbad, Calif.).
For apoptotic cell quantification, prostate sections were fixed with 4% paraformaldehyde (PFA) and stained with the Mebstain Apoptosis Kit according to manufacturer's recommendations (MBL International, Woburn, Mass.). Basement membranes were stained with a rat polyclonal anti-α2laminin antibody (Abcam) followed by Alexafluor647-conjugated goat anti-rat antibody (Molecular Probes).
Gene expression levels were analyzed from RNA extracted, using the TRIzol solution (Invitrogen, Carlsbad, Calif.), from PC-3, DU145, LNCaP cell lines or prostates from Balb/c nu/nu mice by quantitative real-time PCR, as described previously (Mendez-Ferrer, Nature, 452:442-447 (2008)).

PC-3luc cells [2] = assay: Xenogeneic orthotopic PC-3luc prostate tumor model in nude mice (bioluminescence, immunofluorescence); type: in vivo, Balb/c nu/nu mice
Procedure: The microenvironment of a developing tumor is important in cancer development and metastasis. A xenogeneic orthotopic model of prostate cancer was established to provide a minimally disruptive microenvironment for this cancer in live mice.
In vivo and ex vivo bioluminescence imaging was performed and analyzed using an IVIS imaging system 200 series (Xenogen, Caliper Life Sciences, Hopkinton, Mass.). Bioluminescent signal was induced by i.p. injection of D-luciferin (150 mg/kg in PBS) 8 minutes prior to in vivo imaging. For ex vivo imaging, D-luciferin (300 mg/kg) was injected 7 minutes prior to necropsy. Organs of interest were immersed in a solution of D-luciferin at 150 mg/ml.
as §1, §2
(§3) Human tumors were induced by orthotopic surgical implantations of 1×10^5 PC-3luc cells into six- to eight-week-old Balb/c nu/nu mice. Ten days after cell injection (day 0), the animals were randomized into the different groups and received the appropriate drugs, as indicated. 6OHDA or vehicle was injected at day 0 (100 mg/kg) and day 2 (250 mg/kg), and human recombinant G-CSF treatment was begun on day 4 (Amgen, 250 μg/kg/day, every 12 hours, 8 divided doses, i.p., in 5% dextrose). A second cycle was administered eight weeks after graft and animals were sacrificed three weeks after the last injection of G-CSF (i.e., 11 weeks after graft). In other experiments, 2×10^5 PC-3luc cells were orthotopically injected into nu/nu Adrβ2^tm1Bkk/J+/+ Adrβ3^tm1Lowl/J+/+, nu/nu Adrβ2^tm1Bkk/J−/−, nu/nu Adrβ3^tm1Lowl/J−/− and nu/nu Adrβ2^tm1Bkk/J−/− Adrβ3^tm1Lowl/J−/−. In selected experiments, 2×10^6 LNCaP-luc cells were injected in nu/nu Adrβ2^tm1Bkk/J+/+ Adrβ3^tm1Lowl/J+/+ and nu/nu Adrβ2^tm1Bkk/J−/− Adrβ3^tm1Lowl/J−/− mice. For the transgenic model, one-, two- or five-month-old c-Myc mice were injected with 6OHDA or surgically sympathectomized according to protocols described above and sacrificed 30 days later.
A second cycle was administered at week four and mice were sacrificed one week later (five weeks after graft). For cholinergic experiments using the nu/nu Chrm1^tm1Stl+/+ and nu/nu Chrm1^tm1Stl−/− animals, mice were sacrificed at week six post-graft. For the survival study, grafted mice were treated as described hereinabove from week 4, every two weeks for up to 25 weeks or until death. Disease progression was monitored by bioluminescence scanner. […] One week later, mice received a second round of treatment and were then sacrificed at month four.

murine fetal neurons = assay: Neurite outgrowth in fetal neuronal cultures; type: cell-based, mouse; conditions: G-CSF, cultivation for 6 days
Procedure: To evaluate neurite growth, cultures were fixed for 10 minutes at −20° C. with 5% glacial acetic acid/95% ethanol and then incubated with an anti-phosphorylated NF-H antibody (Sigma, clone NE14) and a rabbit anti-microtubule-associated protein-2 antibody (Chemicon), followed by Alexafluor488-conjugated goat anti-mouse antibody and Alexafluor568-conjugated goat anti-rabbit antibody (Molecular probes). For G-CSFR staining, mouse fetal neurons in culture were fixed with methanol and then incubated with a rabbit anti-G-CSFR (Santa-Cruz biotechnology, Santa Cruz, Calif.) and Alexafluor568-conjugated goat anti-rabbit antibody (Molecular probes). Neurite outgrowth was analyzed objectively from 40 random fields (field area=0.6 mm^2) per growth condition using the “Neurite Outgrowth” module of Metamorph software (MDSAT).
Neuronal cultures were prepared from embryonic day 15 fetal neocortex as described in Dobrenis et al., J Neurosci. Res. 82(3):306-315 (2005), incorporated herein by reference. Briefly, after enzymatic and mechanical tissue dissociation, cells were plated at 2.5×10^4/cm^2 (day 0) and treated with 20 μg/ml 5-fluoro-2′ deoxyuridine and 50 μg/ml uridine at day 4 for 24 hours to eliminate glial growth. At day 1, cultures were maintained in serum-free medium and incubated with G-CSF at different concentrations (0, 500, 1000 ng/ml) until day 7.

[3] = test system: prostate cancer in cMyc mice; assay: cMyc transgenic mouse model of prostate cancer (mPIN, invasive cancer zones); type: in vivo; conditions: G-CSF; 11 weeks of age
Procedure: To investigate further the activity of G-CSF on tumor development using a genetic mouse model, transgenic mice expressing human cMyc under the ARR2/probasin promoter expressed specifically in the prostate (hereafter cMyc mice) were evaluated. This transgenic model leads to the complete penetrance of mouse prostatic intraepithelial neoplasia (mPIN) from postnatal week 2, progressing to invasive adenocarcinomas between 3 to 6 months of age (FIG. 2m). […] The development of invasive cancer was associated with a broad infiltration of NF-L+ neo-fibers by comparison with control animals (FIG. 2o). Thus, the increased tumor/normal epithelial cell proliferation following G-CSF administration is associated with (i.e., is correlated to) the development of new nerve fibers in the primary tumor. Accordingly, a method of treating cancer in a subject such as a human patient or non-human animal (e.g., non-human mammal) comprises administering a prophylactically or therapeutically effective amount of an inhibitor of NF-L+ neo-fibers. In some embodiments, the method comprises administering a prophylactically or therapeutically effective amount of an inhibitor of G-CSF.
as §3
To ascertain the role of sympathetic innervation in tumor initiation using a genetic model, the effect of chemical or surgical sympathectomy on prostate cancer in cMyc mice was evaluated. For this study, transgenic cMyc mice expressing human c-Myc under the ARR2/probasin promoter expressed specifically in the prostate (AAR2/Pbsn-MYC) were used. This transgenic model leads to the complete penetrance of mouse prostatic intraepithelial neoplasia (mPIN) from postnatal week 2, progressing to invasive adenocarcinomas between 3 to 6 months of age (FIG. 6e). To this end, mice were chemically sympathectomized one month prior to histological analyses.
Disease progression was monitored by bioluminescence scanner. […] Mice were sacrificed at week 10.

B1: G-CSF: human recombinant granulocyte-colony stimulating factor (Amgen), hematopoietic growth factor (protein, UniProt P09919 31-207, looked up)
Granulocyte …: TPLGPASSLPQSFLLKCLEQVRKIQGDGAALQEKLVSECATYKLCHPEELVLLGHSLGIPWAPLSSCPSQALQLAGCLSQLHSGLFLYQGLLQALEGISPELGPTLDTLQLDVADFATTIWQQMEELGMAPALQPTQGAMPAFASAFQRRAGGVLVASHLQSFLEVSYRVLRHLAQP
B1 was tested, and the “proliferation of PC-3luc tumor cells in vitro” value (PC-3luc cells [1]) was “could not stimulate”, the “proliferation of healthy epithelial cells (anti-Ki67 staining)” value (healthy prostate; G-CSF treatment) was “led to proliferation” and the “density of NF-L+ nerve fibers in healthy (tumor-free) prostate” value (healthy prostate; three weeks after G-CSF, vs PBS control) was “higher density”. The “Chrm1 expression in the prostate gland” value (healthy prostate; three weeks after last G-CSF injection, Q-PCR) was “tended to increase”, the “tumor cell proliferation in the primary tumors (Ki67 staining)” value (PC-3luc cells [2]; G-CSF 250 μg/kg/day, orthotopic PC-3luc) was “significantly increased” and the “TH+ fibers against 6OHDA-induced damage” value (PC-3luc cells [2]; G-CSF after 6OHDA) was “protected”. The “development of primary tumors initially sympathectomized with 6OHDA” value (PC-3luc cells [2]; G-CSF after 6OHDA) was “rescued”, the “metastases in 6OHDA-lesioned animals” value (PC-3luc cells [2]; G-CSF after 6OHDA) was “did not induce” and the “invasion of inguinal lymph nodes and metastases” value (PC-3luc cells [2]; G-CSF alone, bioluminescence, week 11) was “induced”. For the same molecule, the “size of the primary tumor” value (PC-3luc cells [2]; G-CSF treatment) was “did not affect”, the “infiltration of VAChT+ parasympathetic neo-nerves” value (PC-3luc cells [2]; immunofluorescence of tumors) was “selectively promoted” and the “density of newly formed NF-L+ nerves in prostate tumors” value (PC-3luc cells [2]; vs PBS, 11 weeks) was “significantly higher densities”. For the same molecule, the “axonal outgrowth vs vehicle-treated controls” value (murine fetal neurons) was “about 2 fold”, the dendrite outgrowth (murine fetal neurons) was “unchanged” and the “frequency of mPIN” value [3] was “modest, but significant, effect”. For the same molecule, the “number of invasive cancer zones” value [3] was “dramatically increased”.

Reference: patent publication US20140322242A1, “MATERIALS AND METHODS FOR THE PREVENTION AND TREATMENT OF CANCER” (Icahn School of Medicine at Mount Sinai, priority 2010, published 2014)
